Source: PMC5970976
pKd: −log10 of the molar value.

Molecular target: CHIKV virus-like particles (VLPs, strain 37997) (chikungunya virus (strain 37997))
Assay: SPR

CHIKV virus-like particles (VLPs, strain 37997) (chikungunya virus (strain 37997)), sequence (Q5XXP3 326-748 limits assumed, chain 1 of 2): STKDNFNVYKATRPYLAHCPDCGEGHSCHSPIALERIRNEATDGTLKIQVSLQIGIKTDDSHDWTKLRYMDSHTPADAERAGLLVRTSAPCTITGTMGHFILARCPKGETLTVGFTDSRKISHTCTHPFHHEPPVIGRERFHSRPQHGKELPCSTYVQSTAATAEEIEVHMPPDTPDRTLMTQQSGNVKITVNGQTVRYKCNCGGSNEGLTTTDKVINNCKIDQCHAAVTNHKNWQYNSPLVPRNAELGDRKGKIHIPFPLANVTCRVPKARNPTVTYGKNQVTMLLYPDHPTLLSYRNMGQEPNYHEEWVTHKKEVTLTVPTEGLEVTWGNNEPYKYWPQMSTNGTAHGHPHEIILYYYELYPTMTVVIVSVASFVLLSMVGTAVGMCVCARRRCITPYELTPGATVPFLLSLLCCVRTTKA
CHIKV virus-like particles (VLPs, strain 37997) (chikungunya virus (strain 37997)), sequence (Q5XXP3 810-1248 limits assumed, chain 2 of 2): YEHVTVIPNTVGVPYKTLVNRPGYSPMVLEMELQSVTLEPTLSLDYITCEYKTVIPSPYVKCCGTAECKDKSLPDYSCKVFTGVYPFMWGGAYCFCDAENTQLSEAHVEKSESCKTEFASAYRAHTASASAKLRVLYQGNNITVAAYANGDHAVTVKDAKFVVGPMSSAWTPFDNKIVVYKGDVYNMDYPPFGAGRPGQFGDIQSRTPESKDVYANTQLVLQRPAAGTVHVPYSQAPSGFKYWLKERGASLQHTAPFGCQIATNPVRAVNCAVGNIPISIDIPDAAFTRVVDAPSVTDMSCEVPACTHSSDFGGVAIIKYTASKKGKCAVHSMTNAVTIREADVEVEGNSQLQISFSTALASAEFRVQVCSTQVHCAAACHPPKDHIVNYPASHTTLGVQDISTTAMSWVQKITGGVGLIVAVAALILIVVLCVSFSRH

Mxra8 cleaved from the IgG backbone (recombinant Mxra8 from Mxra8-HRV-Fc) (from UniProt Q9DBV4 22-336) (domain or fragment)
pKd: 6.70
